# Laboratory results taken from US20260218270A1.
# T1: fusion protein of SEQ ID NO: 15 (Nanoluc luciferase at the N-terminus, VWF A2 domain aa1574-1668, Flag-tag, C-terminal His-tag)
# T1 chain: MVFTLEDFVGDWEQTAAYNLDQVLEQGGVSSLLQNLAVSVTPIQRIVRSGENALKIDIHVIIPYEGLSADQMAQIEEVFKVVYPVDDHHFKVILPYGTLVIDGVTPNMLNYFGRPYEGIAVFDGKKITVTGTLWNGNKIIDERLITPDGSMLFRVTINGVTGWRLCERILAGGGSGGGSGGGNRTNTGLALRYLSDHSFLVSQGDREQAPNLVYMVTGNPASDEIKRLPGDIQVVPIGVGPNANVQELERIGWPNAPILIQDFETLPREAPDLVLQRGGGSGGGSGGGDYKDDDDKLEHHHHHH
# T2: N-NLuc-VWFA2-C fusion protein (SEQ ID NO: 17)
# T2 chain: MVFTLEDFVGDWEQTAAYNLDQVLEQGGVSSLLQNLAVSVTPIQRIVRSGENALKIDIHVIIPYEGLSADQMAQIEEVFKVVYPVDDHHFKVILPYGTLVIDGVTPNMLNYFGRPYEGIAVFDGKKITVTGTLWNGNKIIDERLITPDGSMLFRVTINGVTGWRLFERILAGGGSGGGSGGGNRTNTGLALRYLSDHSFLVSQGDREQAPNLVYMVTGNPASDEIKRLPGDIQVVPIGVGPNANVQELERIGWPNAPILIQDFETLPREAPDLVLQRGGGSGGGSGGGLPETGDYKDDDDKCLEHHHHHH
# T3: fusion protein of SEQ ID NO: 16 (Nanoluc luciferase at the C-terminus, VWF A2 domain aa1574-1668, Flag-tag, C-terminal His-tag)
# T3 chain: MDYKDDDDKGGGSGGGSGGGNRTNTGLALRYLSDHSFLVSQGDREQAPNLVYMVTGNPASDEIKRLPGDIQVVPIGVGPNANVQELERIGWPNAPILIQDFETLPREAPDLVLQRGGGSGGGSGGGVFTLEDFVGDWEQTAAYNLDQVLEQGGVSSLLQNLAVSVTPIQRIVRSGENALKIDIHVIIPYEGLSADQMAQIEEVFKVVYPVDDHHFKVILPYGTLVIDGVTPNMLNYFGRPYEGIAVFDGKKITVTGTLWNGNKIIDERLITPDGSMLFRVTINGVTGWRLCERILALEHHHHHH
# B1: ADAMTS13 (protein)
# chain: AAGGILHLELLVAVGPDVFQAHQEDTERYVLTNLNIGAELLRDPSLGAQFRVHLVKMVILTEPEGAPNITANLTSSLLSVCGWSQTINPEDDTDPGHADLVLYITRFDLELPDGNRQVRGVTQLGGACSPTWSCLITEDTGFDLGVTIAHEIGHSFGLEHDGAPGSGCGPSGHVMASDGAAPRAGLAWSPCSRRQLLSLLSAGRARCVWDPPRPQPGSAGHPPDAQPGLYYSANEQCRVAFGPKAVACTFAREHLDMCQALSCHTDPLDQSSCSRLLVPLLDGTECGVEKWCSKGRCRSLVELTPIAAVHGRWSSWGPRSPCSRSCGGGVVTRRRQCNNPRPAFGGRACVGADLQAEMCNTQACEKTQLEFMSQQCARTDGQPLRSSPGGASFYHWGAAVPHSQGDALCRHMCRAIGESFIMKRGDSFLDGTRCMPSGPREDGTLSLCVSGSCRTFGCDGRMDSQQVWDRCQVCGGDNSTCSPRKGSFTAGRAREYVTFLTVTPNLTSVYIANHRPLFTHLAVRIGGRYVVAGKMSISPNTTYPSLLEDGRVEYRVALTEDRLPRLEEIRIWGPLQEDADIQVYRRYGEEYGNLTRPDITFTYFQPKPRQAWVWAAVRGPCSVSCGAGLRWVNYSCLDQARKELVETVQCQGSQQPPAWPEACVLEPCPPYWAVGDFGPCSASCGGGLRERPVRCVEAQGSLLKTLPPARCRAGAQQPAVALETCNPQPCPARWEVSEPSSCTSAGGAGLALENETCVPGADGLEAPVTEGPGSVDEKLPAPEPCVGMSCPPGWGHLDATSAGEKAPSPWGSIRTGAQAAHVWTPAAGSCSVSCGRGLMELRFLCMDSALRVPVQEELCGLASKPGSRREVCQAVPCPARWQYKLAACSVSCGRGVVRRILYCARAHGEDDGEEILLDTQCQGLPRPEPQEACSLEPCPPRWKVMSLGPCSASCGLGTARRSVACVQLDQGQDVEVDEAACAALVRPEASVPCLIADCTYRWHVGTWMECSVSCGDGIQRRRDTCLGPQAQAPVPADFCQHLPKPVTVRGCWAGPCVGQGTPSLVPHEEAAAPGRTTATPAGASLEWSQARGLLFSPAPQPRRLLPGPQENSVQSSACGRQHLEPTGTIDMRGPGQADCAVAIGRPLGEVVTLRVLESSLNCSAGDMLLLWGRLTWRKMCRKLLDMTFSSKTNTLVVRQRCGRPGGGVLLRYGSQLAPETFYRECDMQLFGPWGEIVSPSLSPATSNAGGCRLFINVAPHARIAIHALATNMGAGTEGANASYILIRDTHSLRTTAFHGQQVLYWESESSQAEMEFSEGFLKAQASLRGQYWTLQSWVPEMQDPQSWKGKEGT
# Tests used:
# [1] = molecular target: T1, fusion protein of SEQ ID NO: 15 …
# [2] = molecular target: T2, N-NLuc-VWFA2-C fusion protein (SEQ ID …)
# [3] = molecular target: T3, fusion protein of SEQ ID NO: 16 …
# [4] = molecular target: fusion protein of SEQ ID NO: 16 (Nanoluc luciferase at the C-terminus, VWF A2 domain aa1574-1668, Flag-tag, C-terminal His-tag); experiment: cell-based or functional assay
binder,measurement,setting,value
B1,luminescence (RLU) of fusion protein left on anti-VWF-A2 coated plate after incubation with 0-20% NPP,[1],"shows a decreasing signal when the concentration NPP increases, suggesting that ADAMTS13 cleaves the fusion protein"
same,"SDS-PAGE (4-15% gradient, Coomassie Blue), FIG. 10",[2],shows the expected fragments of the fusion-protein (SEQ ID NO: 17) after cleavage by adding ADAMTS13
same,amount of fusion protein cleaved off and transferred to the new plate,[3],~120 ng VWFA2-Nanoluc
same,"luminescence (RLU) against NPP concentration, FIG. 1",[3],This fusion protein is also cleaved by ADAMTS13 but here is not as much influence on light emission
same,luminescence (RLU) of fusion protein left on anti-VWF-A2 coated plate after incubation with 0-20% NPP,[3],did not demonstrate an effect of an increasing ADAMTS13 concentration
same,luminescence (RLU) transferred from anti-FLAG plate after A13 at 0-1 IU/mL,[3],a signal increase from ~1.5 towards ~1.7 M RLU for C-Flag
same,share of the initially offered quantity that was cleaved off and transferred,[3],~12% of the initially offered quantity to the wells
same,"luminescence (RLU) left on the Ni-NTA binding plate, A13 from lithium-heparin plasma, FIG. 8C",[4],400000 RLU
